Measurements from US20160145343A1.

What was measured:
[1] = molecular target: MUC1 on MUC1+ human cancer cell lines and tumor tissue (abnormal, e.g. hypoglycosylated, tumor MUC1) (human) (UniProt P15941); test: flow cytometry, BT20 cells, secondary antibody only
[2] = molecular target: MUC1 on MUC1+ human cancer cell lines and tumor tissue (abnormal, e.g. hypoglycosylated, tumor MUC1) (human) (UniProt P15941); test: flow cytometry, MCF-7 cells, secondary antibody only
[3] = molecular target: MUC1 on MUC1+ human cancer cell lines and tumor tissue (abnormal, e.g. hypoglycosylated, tumor MUC1) (human) (UniProt P15941); test: flow cytometry, SKBR-3 cells, secondary antibody only
[4] = molecular target: MUC1 on MUC1+ human cancer cell lines and tumor tissue (abnormal, e.g. hypoglycosylated, tumor MUC1) (human) (UniProt P15941); test: flow cytometry, PANC-1 cells, secondary antibody only
[5] = molecular target: MUC1 on MUC1+ human cancer cell lines and tumor tissue (abnormal, e.g. hypoglycosylated, tumor MUC1) (human) (UniProt P15941); test: flow cytometry, HPAF cells, secondary antibody only
[6] = molecular target: MUC1 on MUC1+ human cancer cell lines and tumor tissue (abnormal, e.g. hypoglycosylated, tumor MUC1) (human) (UniProt P15941); test: flow cytometry, MS+MUC1 cells, secondary antibody only
[7] = molecular target: MUC1 on MUC1+ human cancer cell lines and tumor tissue (abnormal, e.g. hypoglycosylated, tumor MUC1) (human) (UniProt P15941); test: immunohistochemistry, colon tissue microarray, malignant samples
[8] = molecular target: MUC1 on MUC1+ human cancer cell lines and tumor tissue (abnormal, e.g. hypoglycosylated, tumor MUC1) (human) (UniProt P15941); test: immunohistochemistry, colon tissue microarray
[9] = molecular target: MUC1 on MUC1+ human cancer cell lines and tumor tissue (abnormal, e.g. hypoglycosylated, tumor MUC1) (human) (UniProt P15941); test: immunohistochemistry, colon tissue microarray, benign samples
[10] = molecular target: MUC1 on MUC1+ human cancer cell lines and tumor tissue (abnormal, e.g. hypoglycosylated, tumor MUC1) (human) (UniProt P15941); test: flow cytometry, SKBR-3 cells
[11] = molecular target: MUC1 on MUC1+ human cancer cell lines and tumor tissue (abnormal, e.g. hypoglycosylated, tumor MUC1) (human) (UniProt P15941); test: flow cytometry, BT20 cells
[12] = molecular target: MUC1 on MUC1+ human cancer cell lines and tumor tissue (abnormal, e.g. hypoglycosylated, tumor MUC1) (human) (UniProt P15941); test: flow cytometry, MCF-7 cells
[13] = molecular target: MUC1 on MUC1+ human cancer cell lines and tumor tissue (abnormal, e.g. hypoglycosylated, tumor MUC1) (human) (UniProt P15941); test: flow cytometry, PANC-1 cells
[14] = molecular target: MUC1 on MUC1+ human cancer cell lines and tumor tissue (abnormal, e.g. hypoglycosylated, tumor MUC1) (human) (UniProt P15941); test: flow cytometry, MS+MUC1 cells
[15] = molecular target: MUC1 on MUC1+ human cancer cell lines and tumor tissue (abnormal, e.g. hypoglycosylated, tumor MUC1) (human) (UniProt P15941); test: flow cytometry, HPAF cells

Row | Substance | percentage of APC+ stained cells [1] [%] | percentage of APC+ stained cells [2] [%] | percentage of APC+ stained cells [3] [%] | percentage of APC+ stained cells [4] [%] | percentage of APC+ stained cells [5] [%] | percentage of APC+ stained cells [6] [%] | MUC1+ samples stained (of 114 MUC1+ malignant samples) [7] | samples MUC1+ by staining (of 6 benign samples) [8] | samples MUC1+ by staining (of 138 malignant samples) [8] | MUC1+ samples stained (of 3 MUC1+ benign samples) [9] | percentage of APC+ stained cells [10] [%] | percentage of APC+ stained cells [11] [%] | percentage of APC+ stained cells [12] [%] | percentage of APC+ stained cells [13] [%] | percentage of APC+ stained cells [14] [%] | percentage of APC+ stained cells [15] [%]
1 | M-2nd. (APC-labeled secondary antibody only control for the mouse antibodies) | 1.74 | 1.39 | 1.67 | 3.45 | 0.77 | 0.46 | – | – | – | – | – | – | – | – | – | –
2 | Hu-2nd. (APC-labeled secondary antibody only control for the human antibodies) | 1.17 | 1.73 | 0.96 | 2.01 | 1.02 | 0.55 | – | – | – | – | – | – | – | – | – | –
3 | HMPV (BD Biosciences), mouse anti-MUC1 antibody | – | – | – | – | – | – | 114 | 3 | 114 | 3 | – | – | – | – | – | –
4 | VU-4H5 (Abnova), mouse anti-MUC1 antibody | – | – | – | – | – | – | 49 | – | – | 2 | 24.1 | 32.9 | 27.8 | 54.3 | 24.6 | 6.99
5 | VU-3C6 (Abcam), mouse anti-MUC1 antibody | – | – | – | – | – | – | – | – | – | – | 99.9 | 92.3 | 98.7 | 98.8 | 99.4 | 98.4
